Assay results from article doi:10.1101/2025.03.12.642685.
“And” between values parts separate entries of the source, which are not always exact repeats. Equal entries are not always repeated.

How the values were obtained:
[1] = molecular target: PorK (P. gingivalis (endogenous in P. gingivalis W50 EK18)); test: cryo-EM structure
[2] = molecular target: PorN (P. gingivalis (endogenous in P. gingivalis W50 EK18)); test: cryo-EM structure

Substance | stoichiometry N [1] | stoichiometry N [2]
PorK (natural protein) | 31 to 35 (2×) and 33 | 
PorN (natural protein) |  | 31 to 35 (2×) and 33
